Source: patent CN114605532A (BEIJING FIRST BIOCHEMICAL PHARMACEUTICAL LTD COMPANY, dated 2022)

Target: 抗原(bs-0107P)
Assay: indirect ELISA, antigen bs-0107P coated at 2 μg/ml (0.2 μg/well), purified antibody in serial dilution, HRP goat anti-mouse IgG, OD450

Sequence of 抗原(bs-0107P) (P05067 672-713): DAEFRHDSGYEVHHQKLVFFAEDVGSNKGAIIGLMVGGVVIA

B1: 抗β-淀粉样蛋白单克隆抗体7D10-1E6 (antibody, V domains shown)
VH: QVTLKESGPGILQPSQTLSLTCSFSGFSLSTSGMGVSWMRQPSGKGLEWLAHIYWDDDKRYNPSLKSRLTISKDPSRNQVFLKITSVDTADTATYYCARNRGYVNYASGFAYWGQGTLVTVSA
VL: DVLMTQTPLSLPVSLGDQASISCRSSQSIVHSNGNTYLEWYLQKPGQSPKLLIYKVSNRFSGVPDRFSGSGSGTDFILKINRVEAEDLGVYYCFQGSHVPLTFGAGTKLELK
  EC50: 0.0237 nM
